In publication PMC8896826, “Cellular assays identify barriers impeding iron-sulfur enzyme activity in a non-native prokaryotic host” (eLife, 2022) one finds Kd data, which are given here for 1 molecule.

The target in this test is T1, tryptophan 2-C-methyltransferase (TsrM) from Streptomyces laurentii (Streptomyces laurentii, UniProt C0JRZ9 1-599).
T1 construct: TsrM, tryptophan 2-C-methyltransferase of the thiostrepton synthesis pathway, Streptomyces laurentii; As purified it holds 0.9 cobalamin and 3.5 Fe per monomer ([4Fe-4S] cluster); The methods describe no TEV cleavage for TsrM, so the His-tag was probably still on the protein; also called cobalamin-dependent rSAM methyltransferase TsrM; source: E. coli BL21(DE3), coexpressed with the Btu operon, …
T1 sequence (looked up): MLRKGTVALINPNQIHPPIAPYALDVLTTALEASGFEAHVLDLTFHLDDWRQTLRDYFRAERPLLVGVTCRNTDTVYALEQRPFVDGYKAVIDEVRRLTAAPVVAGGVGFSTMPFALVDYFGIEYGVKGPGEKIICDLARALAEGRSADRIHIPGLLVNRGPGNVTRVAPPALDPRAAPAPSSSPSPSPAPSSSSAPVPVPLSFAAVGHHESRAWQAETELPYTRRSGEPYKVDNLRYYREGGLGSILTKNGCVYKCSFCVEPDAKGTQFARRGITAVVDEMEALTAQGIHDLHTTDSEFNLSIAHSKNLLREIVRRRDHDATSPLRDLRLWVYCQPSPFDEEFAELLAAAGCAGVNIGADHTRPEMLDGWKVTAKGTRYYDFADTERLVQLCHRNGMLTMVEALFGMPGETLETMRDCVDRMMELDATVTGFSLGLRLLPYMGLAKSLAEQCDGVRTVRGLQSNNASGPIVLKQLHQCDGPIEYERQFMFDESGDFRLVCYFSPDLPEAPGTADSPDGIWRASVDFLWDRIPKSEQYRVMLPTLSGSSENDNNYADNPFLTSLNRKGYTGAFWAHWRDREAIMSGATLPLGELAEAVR
Nature of the test: BLI; biotinylated ferredoxins (10 µg/mL) bound to streptavidin biosensors, plunged into TsrM solution at various concentrations (80 s association, 60 s dissociation); BLItz system in an anaerobic chamber (O2 <2 ppm); 25 mM Hepes pH 7.5, 300 mM KCl, 5% glycerol with Tween 20 and BSA. Particulars: both partners purified. (Biolayer interferometry detects binding as a change in optical thickness at a sensor tip.)

B1: Streptomyces cattleya ferredoxin Fdx1 (natural protein, UniProt F8K3M7 1-106, looked up)
chain: MTYVIAQPCVDVKDKACIEECPVDCIYEGQRSLYIHPDECVDCGACEPVCPVEAIFYEDDTPEEWKDYYKANVEFFDELGSPGGASKLGLIERDHPFIAALPPQNG
modifications: biotin (incubation with one equivalent of NHS-PEG4-Biotin)
notes: ferredoxin Fdx1 of Streptomyces cattleya, GenBank AEW96347.1; 7.4 Fe atoms per monomer after reconstitution (two [4Fe-4S] clusters); also called double-cluster [4Fe-4S] ferredoxin; not shown: His-tag, N-terminal, cleaved
Usually Kd stands for the equilibrium constant for the complex coming apart. Read a high Kd as a looser complex. Molecule B1 returned a Kd of 40 µM.
